Laboratory results published in PMC11490884 (The Journal of Biological Chemistry, 2024).

T1: ASAP1 SH3 domain (aa. 1083–1147) (mouse, UniProt Q9QWY8 1083-1147)
T1 sequence (looked up): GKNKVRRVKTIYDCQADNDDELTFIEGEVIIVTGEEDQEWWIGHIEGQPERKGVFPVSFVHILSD


Molecular target: T1, ASAP1 SH3 domain (aa. 1083–1147)
Experiment: ITC

| Binder | Kd | fold weakening of the interaction against the wild-type gAnkB peptide | other results |
| --- | --- | --- | --- |
| IPPDETQSTQKQHKPSLGIKKPVRRKLKEKQKQKEEGLQASAEKAELKKG (domain or fragment, human, UniProt Q01484 1682-1731, looked up) [gAnkB (aa. 1682–1731)] | ~140 nM |  |  |
| GIKKPVRRKLKE (peptide, UniProt Q01484 1699-1710, looked up) [12-residue peptide derived from gAnkB (aa. 1699–1710)] | ~190 nM |  |  |
| GIKKGVRRKLKE (peptide, UniProt Q01484 1699-1710, looked up) [gAnkB peptide P1703G] |  |  | fold decrease of the binding affinity against the wild-type gAnkB peptide: ~3 fold |

Continued, in another order:

| Kd | fold weakening of the interaction against the wild-type gAnkB peptide | Binder | other results |
| --- | --- | --- | --- |
|  | ~264 fold | GIKEPVRRKLKE (peptide, UniProt Q01484 1699-1710, looked up) [gAnkB peptide K1702E] |  |
|  | ~105 fold | GIKKPVERKLKE (peptide, UniProt Q01484 1699-1710, looked up) [gAnkB peptide R1705E] |  |
